B1: TMHC2 (transmembrane hairpin C2) (designed binder)
chain: MTRTEIIRELERSLRLQLVLAIFLMALLIVLLWLQQNGSSNNNVNYLLIVILVLVLVIVALAVTQKYLVEQLKRQD
notes: De novo designed two-helix transmembrane hairpin, entered here as one protomer; It was expressed from pET-28b with an N-terminal hexa-histidine tag and a thrombin site
B2: TMHC3 (designed binder)
chain: MSEELRAVADLQRLNIELARKLLIAVALLQLLNILLVMLTSELTDEKTILWMIVIVMFLSLAIVIVALREIRRAKEESRKIADESR
notes: De novo designed hairpin, entered as one protomer; It self-associates into a homotrimer with six TM helices; also called designed transmembrane trimer TMHC3; not shown: C-terminal hexa-histidine tag from pET-29b (gene without stop codon, NdeI/XhoI)

Assays:
[1] = biological target: the molecule itself; assay: AUC in detergent solution (C8E5); self-association to homodimer
Method: The dimer design with the shortest hydrophobic span (15 residues, TMHC2_S) was poorly behaved in both E. coli and mammalian cells, but the dimer designs with longer spans TMHC2, TMHC2_E and TMHC2_L localized to the cell membrane when expressed in HEK293T cells (data not shown) and in E. coli. The designed proteins were purified by extracting the E. coli membrane fraction with detergent, followed by nickel-NTA chromatography and size exclusion chromatography (SEC) with a yield of ˜2 mg/L (FIG. 6A-B). […] For the single chain scTMHC2 the major species in SEC was the monomer with a small side peak that was readily removed by purification (FIG. 6B).
Analytical ultracentrifugation (sedimentation velocity and sedimentation equilibrium) experiments were carried out using a Beckman XL-I analytical ultracentrifuge (Beckman Coulter) equipped with an eight-cell An-50 Ti rotor. The proteins were run in 20 mM sodium phosphate, pH 7.0, containing 200 mM NaCl supplemented with 0.5% C8E5, no density matching was necessary and the solvent density was calculated as 1.0075 g mL⁻¹. The partial specific volume of the protein was calculated by the program Sednterp™ (37). For sedimentation velocity, absorbance at 230 nm versus radial location was recorded during centrifugation at 50,000 rpm at 20° C. […] The data of sedimentation velocity and sedimentation equilibrium were analyzed using Sedfit™ and Sedphat™.

[2] = biological target: the molecule itself; assay: AUC in detergent solution; self-association to homotrimer
Source text: We used a similar approach to design a transmembrane trimer with six membrane spanning helices (TMHC3) based on the 5L6HC3_1 scaffold (PDB ID: 5IZS). Guided by the results with the C2 designs, we chose a hydrophobic span of ˜30 Å (20 residues) (FIG. 4A). The design was expressed in E. coli and purified to homogeneity, eluting on a gel filtration column as a single homogeneous species (FIG. 5C).
Analytical ultracentrifugation (sedimentation velocity and sedimentation equilibrium) experiments were carried out using a Beckman XL-I analytical ultracentrifuge (Beckman Coulter) equipped with an eight-cell An-50 Ti rotor. The proteins were run in 20 mM sodium phosphate, pH 7.0, containing 200 mM NaCl supplemented with 0.5% C8E5, no density matching was necessary and the solvent density was calculated as 1.0075 g mL⁻¹. The partial specific volume of the protein was calculated by the program Sednterp™ (37). For sedimentation velocity, absorbance at 230 nm versus radial location was recorded during centrifugation at 50,000 rpm at 20° C. For sedimentation equilibrium, data were collected by UV detector at 20° C. for at least two protein concentrations at three rotor speeds. The data of sedimentation velocity and sedimentation equilibrium were analyzed using Sedfit™ and Sedphat™.

Protein	binding result [1]	binding result [2]
B1	binds	–
B2	–	binds

Reference: patent publication US20210363214A1 (University of Washington, published 2021)
